From doi:10.1101/715409 (bioRxiv, 2019)

T1: GST fusion to Boi1 (1-203) (Saccharomyces cerevisiae, UniProt P38041 1-203)
T1 sequence: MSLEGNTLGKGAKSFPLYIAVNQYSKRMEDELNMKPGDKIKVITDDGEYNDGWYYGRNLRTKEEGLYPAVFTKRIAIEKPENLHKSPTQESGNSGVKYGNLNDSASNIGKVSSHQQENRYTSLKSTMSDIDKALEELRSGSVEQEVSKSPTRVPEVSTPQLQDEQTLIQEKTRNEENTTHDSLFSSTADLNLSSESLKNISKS

B1: 6xHis Bud6_(1-141) (domain or fragment)
chain: MKMAVDDPTYGTPKIKRTASSSSSIETTVTKLLMSTKHLLQVLTQWSKGTTSGRLVSDAYVQLGNDFKVVSKFFMHAKVDMSDVGDVPMALRRVLEVTLREPPSDETLNKHLPKIREIIVTLLDKLKVKQAILKNMQQEHR

Legend:
6xHis Bud6_(1-141) = target: B1; experiment: pull-down
[1] = target: T1, GST fusion to Boi1 (1-203); experiment: pull-down

Binder | binding result (6xHis Bud6_(1-141)) | binding result [1]
GST fusion to Boi_(77-178) (domain or fragment) IEKPENLHKSPTQESGNSGVKYGNLNDSASNIGKVSSHQQENRYTSLKSTMSDIDKALEELRSGSVEQEVSKSPTRVPEVSTPQLQDEQTLIQEKTRNEENT | binds | 
B1 |  | binds
